The numbers were not newly measured in publication PMC4083100, which cites them from elsewhere.

For this series, the target named is FcεRI (Homo sapiens) (UniProt P12319).
Chain of UniProt P12319 (P12319 26-257): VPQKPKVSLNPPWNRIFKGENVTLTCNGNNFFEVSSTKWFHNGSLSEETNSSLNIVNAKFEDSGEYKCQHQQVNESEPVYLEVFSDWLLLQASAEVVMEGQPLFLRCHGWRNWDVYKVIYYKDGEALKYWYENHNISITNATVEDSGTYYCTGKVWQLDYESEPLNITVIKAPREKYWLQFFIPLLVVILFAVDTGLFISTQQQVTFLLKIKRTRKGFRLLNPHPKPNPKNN

On to IgE (from UniProt P01854), for which the Kd is < 1 nM.
